This is an account of results in the nanobody polyreactivity screen of Harvey et al. (2022).

The data set is described as follows: yeast display, Sf9 membrane polyspecificity reagent, FACS + sequencing; frameworks hold sequencing errors. The procedure, abridged: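 Sorting gates, low and high (top ~1%), were placed on anti-HA fluorescence to track expression and on streptavidin fluorescence to track reagent binding. A clone's polyreactivity label is taken from the gate it came out of. The reagent was 10% biotinylated, detergent-solubilized Sf9 membrane, applied for 1 hour at 4 °C to galactose-induced yeast display cells.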
Regarding “QVQLVESGGGLVQAGGSLRLSCAASGFTFGNNAMGWYRQAPGTERELVAAISYGGGRTYYADSVKGRFTISRDNAKNTVYLQMNSLKPEDTAVYYCAKDPKYPLSGGYDYWGQGTQVTVSS”, the “polyreactivity (PSR sort gate)” value is given as “low polyreactivity”. In the case of “QVQLVESGGGLVQAGGSLRLSCAASGFTFGNYAMGWYRQAPGKERELVAVISRSGGNTYYADSVKGRFTISRDNAKNTVYLQMNSLKPEDTAVYYCAATLVGKVFRRFDYWGQGTQVTVSS”, the “polyreactivity (PSR sort gate)” value is “high polyreactivity”. For the sequence “QVQLVESGGGLVQAGGSLRLSCAASGFTFGPNTMGWYRQAPGKERELVAAISARGGRTYYADSVKGRFTISRDTAKNTVYLQMNSLKPEDTAVYYCAAPGYVRTGVTYGGYYWGQGTQVTVSS”, the “polyreactivity (PSR sort gate)” value is reported as “high polyreactivity”. As for “QVQLVESGGGLVQAGGSLRLSCAASGFTFGPYTMGWYRQAPGKERELVAAISRSGTGTYYADSVKGRFTISRDNAKNTVYLQMNSLKPEDTAVYYCAADNGDNHGYYWGQGTQVTLSS”, the “polyreactivity (PSR sort gate)” value is given as “high polyreactivity”. Regarding “QVQLVESGGGLVQAGGSLRLSCAASGFTFGRNAIVWYRQAPGKERELVASIDWSGGSTYYADSVKGRFTISRDNAKNTVYLQMNSLKPEDTAVYYCAVGPNSVGNRSYGFDYWGQGTQVTVSS”, the “polyreactivity (PSR sort gate)” value is “low polyreactivity”. In the case of “QVQLVESGGGLVQAGGSLRLSCAASGFTFGRYAMGWYRQAPGKEREFVAAITWSGGGTYYADSVKGRFTISRDNAKNTVYLQMNSLKPEDTAVYYCAADRRAYGGGYWGQRTQVTVSS”, the “polyreactivity (PSR sort gate)” value was “high polyreactivity”.

As for “QVQLVESGGGLVQAGGSLRLSCAASGFTFGRYAMGWYRQAPGKERELLAGITWSGGSTSYADSVKGRFTISRDNAKNTVYFQMNSLKPEDTAVYYCATRARYTRVQGRRYAYDYWGQGTQVTVSS”, the “polyreactivity (PSR sort gate)” value is given as “high polyreactivity”. Under “QVQLVESGGGLVQAGGSLRLSCAASGFTFGRYAMGWYRQAPGKERELVAAINYTDGSTYYADSVKGRFTISRDNAKNTVYLQMNSLKPEDTAGYYCAATTLSFEGGKYWSKYDYWGQGTQVTVSS” stands “low polyreactivity”; under “QVQLVESGGGLVQAGGSLRLSCAASGFTFGRYAMGWYRQAPGKERELVAAISFSGGRTYYADSVKGRFTISRDNAKNTVYLQMNSLKPEDTAVYYCNTAYWYSLYDYWGQGTQVTVSS”, “high polyreactivity”; under “QVQLVESGGGLVQAGGSLRLSCAASGFTFGRYAMGWYRQAPGKERELVAAITRGSGGTYYADSVKGRFTISRDNAKNTVYLQMNSLKPEDTAVYYCATGSRSRGALRYAHFDYWGQGTQVTESS”, “high polyreactivity”.

On to “QVQLVESGGGLVQAGGSLRLSCAASGFTFGRYAMGWYRQAPGKERELVAAITWSGGTTTYYADSVKGRFTISRDNAKNTVYLQMTSLKPEDTAVYYCAADLYFYIYSYNYWGQGTQVTVSS”, for which the “polyreactivity (PSR sort gate)” value is “low polyreactivity”. “QVQLVESGGGLVQAGGSLRLSCAASGFTFGRYAMGWYRQAPWKERELVADITWSGGSTYYADSVKGRFSISRDFAKNTVYLQMNSLKPEDTAVYYCNRLSKNREYDYWGQGTQVNVSS”: the “polyreactivity (PSR sort gate)” value is reported as “high polyreactivity”. For “QVQLVESGGGLVQAGGSLRLSCAASGFTFGSNAMGWYRQAPGKERELVAAISWSGGRTYYADSVKGRFTISRDNAKNTVYLQMNSLKPEDTAVYYCNKQYVKPWYRGYYYWGQGTQVTVSS” the value was “high polyreactivity”; for “QVQLVESGGGLVQAGGSLRLSCAASGFTFGSNTMGWYRQAPGKERELVAAITTSGDSTYYADSVKGRFTISRDNAKNTVYLQMNSLKPEDTAVYYCAAERRYGRYYRLVRLLGQGTQVTVSS”, “high polyreactivity”. In the case of “QVQLVESGGGLVQAGGSLRLSCAASGFTFGSYAMGWYRQAPGKEREFVAAIRRSGSSTYYADSVKGRFTISRDNAKNTVYLQMTSLKPEDTAVYYCAADVYRRLRRYRYYYWGQGTQVTVSS”, the “polyreactivity (PSR sort gate)” value is recorded as “low polyreactivity”.

On to “QVQLVESGGGLVQAGGSLRLSCAASGFTFGSYAMGWYRQAPGKEREFVAAISLGGARTYYADSVKGRFTISRDNAKNTVYLQMNSLKPEDTAVYYCNARGIGRSTKWSSRDYWGQGTQVTVSS”, for which the “polyreactivity (PSR sort gate)” value was “high polyreactivity”. Turning to “QVQLVESGGGLVQAGGSLRLSCAASGFTFGSYAMGWYRQAPGKERELVAAISTSGDTTYYADSVKGRFTISRDNAKNTVYLQMNSLKPEDTAVYYCAAYDWGWPYTLIPFYYWGQGTQVTVSS”, the “polyreactivity (PSR sort gate)” value was “low polyreactivity”. Regarding “QVQLVESGGGLVQAGGSLRLSCAASGFTFGSYAMGWYRQAPGKERELVAGITFSTGTTSYADSVKGRFTISRDNAKTTVYLQMNSLKPEDTAVYYCAADLIPNEDYWGQGTQVTVSS”, the “polyreactivity (PSR sort gate)” value is on record as “low polyreactivity”. As for “QVQLVESGGGLVQAGGSLRLSCAASGFTFGSYAMGWYRQAPGKERELVAVITRSGRTNYADSVKGRFTISRDTAKNTVYLQMNSLKPEDTAVYYCNADDVDDEVSPELTEMDYWGQGTQVTVSS”, the “polyreactivity (PSR sort gate)” value is on record as “low polyreactivity”. For “QVQLVESGGGLVQAGGSLRLSCAASGFTFGSYTMGWYRQAPGKERELVAAITGRGGSTYYADSVKARFTISRDNAKNTVYLQMNSLKPVDTAVYYCAGRRGTTYVGYDYWGQGTQVTVSS” the value was “high polyreactivity”; for “QVQLVESGGGLVQAGGSLRLSCAASGFTFGTYAMGWYRQAPGKERELVAGITSGDGTYYADSVKGRFTISRDNAKNTVYLQMNSLKPEDTAVYYCAVVHYQQYSWRVYFYPYDYWGQGTQVTVSS”, “high polyreactivity”. Under “QVQLVESGGGLVQAGGSLRLSCAASGFTFGVYAMGWYRQAPGKERELVAAISTTVGSTYYADSVKGRFTISRDNAKNTVYLQMNSLKPEDTAVYYCNADGYPDVGAGTYGYWGQGTQVTVSS” stands “low polyreactivity”. For “QVQLVESGGGLVQAGGSLRLSCAASGFTFGWYTMGWYRPAPGKERELVAAISLNGGSTYYADSVKGRFTISRDNAKNTVYLQMNSLKPEDTAVYYCAIGYRWPYYPYDYWGQGTQVTVSS” the value was “low polyreactivity”; for “QVQLVESGGGLVQAGGSLRLSCAASGFTFGWYTMGWYRQAPGKEREFVAAISWSGTSTYYADSVKGRFTISRDNAKNTVYLQMNSLKAEDTAVYYCNKLRRGDMEYWGQGTQVTVSS”, “high polyreactivity”; for “QVQLVESGGGLVQAGGSLRLSCAASGFTFGYNAMGWYRQAPGKERELVAAISWSGGTYYADSVKGRFTISRDNAKNTVYLQMNSLKPEDTAVYYCAAVVVYWTSQIYYDGYYYWGQGTQVTVSS”, “high polyreactivity”. With “QVQLVESGGGLVQAGGSLRLSCAASGFTFGYYTMGWYRQAPGKERELVAAISSGGSTNYADSVKGRFTISRDNAKNTVYLQMNSLKPEDTAVYYCTATQIGPYYLPFDSWGQGTQVTVSS”, the “polyreactivity (PSR sort gate)” value is “high polyreactivity”. Under “QVQLVESGGGLVQAGGSLRLSCAASGFTFGYYTMGWYRQAPGKERELVAAISWRGGRTYYADSVKGRFTISRDNAKNTVYLQMNSLKPEDTAVYYCAAEYTYGWTYRPFDYWGQGTQVTVSS” stands “high polyreactivity”. In the case of “QVQLVESGGGLVQAGGSLRLSCAASGFTFHKNAMGWYRQAPGKERELVAAITNRGGSTYYADSVKGRFTISRDNAKNTVYLQMNSLKPEDTAVYYCAAELRPYITYVGPRKKFYYWGQGTQVTVSS”, the “polyreactivity (PSR sort gate)” value is “high polyreactivity”. For “QVQLVESGGGLVQAGGSLRLSCAASGFTFHNYAMGWYRQAPGKERELVAAITWDGGSTYYADSVKGRFTISRDNEKNTVDLQLNRLKPEDTAVYYCALDQYYYYYADYNFDYWGQGTQVTVSS”, the “polyreactivity (PSR sort gate)” value is given as “high polyreactivity”.

With “QVQLVESGGGLVQAGGSLRLSCAASGFTFHNYAMGWYRQAPGKERELVAVIRWRGGSTYYADSVKGRFTISRDNAKNSVYLQMNSLKPEDTAFYYCAKRARGSYYWGYNYWGQGTQVTVSS”, the “polyreactivity (PSR sort gate)” value is recorded as “high polyreactivity”.

As to “QVQLVESGGGLVQAGGSLRLSCAASGFTFHNYAMGWYRQAPGKERELVAVIRWRGGSTYYADSVKGRFTISRDNAKNTVYLQMNSLKPEDTAVYYCNALFRYSRDYWGQGTQVTVSS”, the “polyreactivity (PSR sort gate)” value is listed as “high polyreactivity”. As for “QVQLVESGGGLVQAGGSLRLSCAASGFTFHPNSMGWYRQAPGKERELVASISSRGGSTYYADSVKGRFTISRDNAKNTVYLQMNSQKPEYTAVYYCNVRGTQYYGHIGFYYWGQGTQVTVSS”, the “polyreactivity (PSR sort gate)” value is recorded as “low polyreactivity”.

Consider “QVQLVESGGGLVQAGGSLRLSCAASGFTFHRYAMGWYRQAPGKERELVARINWSGGGTYYADSVKGRFTISRDNAKNTVYLQMNSLKPEDTAVYYCNARGVFYVYKHDYWGQGTQVTVSS”, for which the “polyreactivity (PSR sort gate)” value is given as “high polyreactivity”. Under “QVQLVESGGGLVQAGGSLRLSCAASGFTFHSYAMGWYRQAPGKERELVAAISGRGGSTYYADSVKGRFTISRDNAKNTVYLQMNSLKPEDTAVYYCARYGYHDYGYWGQCTQVTVSS” stands “high polyreactivity”. Under “QVQLVESGGGLVQAGGSLRLSCAASGFTFHTYAMGWYRQAPGKERELVAAIDSSGGITYYADSVKGRFTISRDNAKNTVYLQMKSLKPEDTAVYYCAAVFLLFGFEWSYDYWGQGTQVTVSS” stands “low polyreactivity”; under “QVQLVESGGGLVQAGGSLRLSCAASGFTFHWYVMGWYRQAPGKERELVAAISRNGGRTYYADSVKGRFTISRDNAKNTVYLQMNSLKPEDTAVYYCATDYGWLYINSIWEYDYWGQGTQVTVSS”, “high polyreactivity”. Turning to “QVQLVESGGGLVQAGGSLRLSCAASGFTFHYYDMGWYRQAPGKERELVATISQSGTSTYYADSVKGRFTISRDNAKNSVYLQMHSLKPEDTAVYYCAADYIGYWYGYYWYEYWGQGTQVTVSS”, the “polyreactivity (PSR sort gate)” value is given as “low polyreactivity”.

As to “QVQLVESGGGLVQAGGSLRLSCAASGFTFHYYGMGWYRQAPGKERELVAAINWSGSSTYYADSVKGRFTISRDNATNTVYLQMNSLKPEDSAVYYCAAEKRKLFQGVARYRYEYWGQGTQVTVSS”, the “polyreactivity (PSR sort gate)” value is “low polyreactivity”. On to “QVQLVESGGGLVQAGGSLRLSCAASGFTFIDYAMGWYRQAPGKERALVAAITSRGGSTYYADSVKGRFTISRDNAKNTVYLQMNSLKPEDTAVYYCNAGSSFWYAYEYWGQGTQVTVSS”, for which the “polyreactivity (PSR sort gate)” value is “high polyreactivity”. For the sequence “QVQLVESGGGLVQAGGSLRLSCAASGFTFIRNAMGWYRQAPGKERELVAAISKRGGSTNYADSVKGRFTISRDNAKNTVYLQMNSLKPEDTAVYYCAAGGQVAWLDYYPMDYWGQGTQVTVSS”, the “polyreactivity (PSR sort gate)” value is “low polyreactivity”.
